The source of these data is US20220298260A1 (MYTHIC THERAPEUTICS, published 2022).

Positions count from the first letter of the chain named.

The target in the assay is T1, FOLR1 (R&D Systems, Cat #5646-FR) (human, UniProt P15328 25-233).
T1 construct: Bought soluble protein; also called Folate Receptor 1
Kind of assay: BLI, IgG on anti-human Fc sensor, 50 nM FOLR1. (In general: In BLI a coated tip is dipped into the sample, and binding shifts an interference pattern.)

T1 sequence (P15328 25-233 limits assumed): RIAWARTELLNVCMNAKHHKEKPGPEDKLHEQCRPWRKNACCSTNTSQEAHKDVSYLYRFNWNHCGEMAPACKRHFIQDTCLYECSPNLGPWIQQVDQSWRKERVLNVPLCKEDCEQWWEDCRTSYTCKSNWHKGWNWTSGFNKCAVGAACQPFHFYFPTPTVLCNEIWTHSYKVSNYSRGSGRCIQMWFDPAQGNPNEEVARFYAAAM

B1: MYT2225 (antibody, V domains shown)
VH: EVQLVESGGGLVQPGGSLRLSCAASHFNIRTQSIHWVRQAPGKGLEWIGDIFPIDGITDYADSVKGRFTISADTSKNTAYLQMNSLRAEDTAVYYCARGSWSWPSGMDYYLDYWGQGTLVTVSS
VL: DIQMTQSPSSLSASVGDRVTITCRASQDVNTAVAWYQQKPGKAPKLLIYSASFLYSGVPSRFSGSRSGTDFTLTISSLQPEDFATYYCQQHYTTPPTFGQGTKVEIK
notes: IgG
B1: the binding result is “binds”.

B2: MYT2234 (antibody, V domains shown)
VH: B1 VH with H26G, H35A
VL: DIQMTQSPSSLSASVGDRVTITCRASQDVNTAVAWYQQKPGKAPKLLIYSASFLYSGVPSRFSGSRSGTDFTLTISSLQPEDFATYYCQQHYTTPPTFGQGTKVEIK
notes: IgG
B2: the binding result is recorded as “binds”.

B3: MYT2239 (antibody, V domains shown)
VH: B1 VH with H26G, I54H
VL: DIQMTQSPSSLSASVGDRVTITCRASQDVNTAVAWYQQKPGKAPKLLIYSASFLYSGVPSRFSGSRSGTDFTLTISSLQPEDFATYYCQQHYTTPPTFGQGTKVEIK
notes: IgG
Take B3: the binding result is recorded as “binds”.

B4: MYT2245 (antibody, V domains shown)
VH: B1 VH with H26G, Y60H
VL: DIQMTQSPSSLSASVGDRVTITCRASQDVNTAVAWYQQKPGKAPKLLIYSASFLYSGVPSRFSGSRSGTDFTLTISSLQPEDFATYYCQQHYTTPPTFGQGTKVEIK
notes: IgG
In the case of B4, the binding result is “binds”.

B5: MYT2235 (antibody, V domains shown)
VH: B1 VH with H26G, D50H
VL: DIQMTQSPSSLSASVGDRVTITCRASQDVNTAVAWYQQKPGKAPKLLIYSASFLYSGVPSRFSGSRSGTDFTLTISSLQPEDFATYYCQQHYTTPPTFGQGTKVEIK
notes: IgG
For B5, the binding result is listed as “binds”.

B6: MYT2232 (antibody, V domains shown)
VH: B1 VH with H26G, S33H
VL: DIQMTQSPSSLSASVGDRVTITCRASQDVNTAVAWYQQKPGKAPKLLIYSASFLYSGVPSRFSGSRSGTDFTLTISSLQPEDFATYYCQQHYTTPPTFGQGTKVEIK
notes: IgG
On to B6, for which the binding result is “binds”.

B7: MYT2231 (antibody, V domains shown)
VH: B1 VH with H26G, Q32H
VL: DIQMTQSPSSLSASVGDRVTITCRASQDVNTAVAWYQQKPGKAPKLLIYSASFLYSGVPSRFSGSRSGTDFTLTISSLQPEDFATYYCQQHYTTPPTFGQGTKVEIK
notes: IgG
For the molecule B7, the binding result is listed as “binds”.

B8: MYT2238 (antibody, V domains shown)
VH: B1 VH with H26G, P53H
VL: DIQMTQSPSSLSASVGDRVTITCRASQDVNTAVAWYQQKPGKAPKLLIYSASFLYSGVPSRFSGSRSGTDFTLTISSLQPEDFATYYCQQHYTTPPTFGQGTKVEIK
notes: IgG
Regarding B8, the binding result is “binds”.

B9: MYT2228 (antibody, V domains shown)
VH: B1 VH with H26G, I29H
VL: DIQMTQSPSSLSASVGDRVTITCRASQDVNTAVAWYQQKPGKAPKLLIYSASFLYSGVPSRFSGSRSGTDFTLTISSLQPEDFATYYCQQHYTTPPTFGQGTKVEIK
notes: IgG
As to B9, the binding result is listed as “binds”.

B10: MYT2230 (antibody, V domains shown)
VH: B1 VH with H26G, T31H
VL: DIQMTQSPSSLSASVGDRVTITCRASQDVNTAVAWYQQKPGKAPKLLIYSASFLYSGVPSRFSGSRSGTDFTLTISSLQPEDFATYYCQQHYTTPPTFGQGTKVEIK
notes: IgG
With B10, the binding result is listed as “binds”.

B11: MYT2229 (antibody, V domains shown)
VH: B1 VH with H26G, R30H
VL: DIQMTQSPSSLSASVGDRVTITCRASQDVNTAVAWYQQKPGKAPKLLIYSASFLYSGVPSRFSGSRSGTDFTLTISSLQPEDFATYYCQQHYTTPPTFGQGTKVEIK
notes: IgG
As to B11, the binding result is reported as “binds”.

B12: MYT2246 (antibody, V domains shown)
VH: B1 VH with H26G, A61H
VL: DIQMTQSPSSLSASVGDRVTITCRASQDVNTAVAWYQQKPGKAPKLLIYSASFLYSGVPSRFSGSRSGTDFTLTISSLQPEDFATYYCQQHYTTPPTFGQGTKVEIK
notes: IgG
Take B12: the binding result is given as “binds”.

B13: MYT2226 (antibody, V domains shown)
VH: B1 VH with H26G, F27H
VL: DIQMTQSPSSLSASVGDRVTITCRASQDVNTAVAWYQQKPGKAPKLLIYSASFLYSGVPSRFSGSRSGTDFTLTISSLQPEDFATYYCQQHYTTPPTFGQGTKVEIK
notes: IgG
Regarding B13, the binding result is listed as “binds”.

B14: MYT2236 (antibody, V domains shown)
VH: B1 VH with H26G, I51H
VL: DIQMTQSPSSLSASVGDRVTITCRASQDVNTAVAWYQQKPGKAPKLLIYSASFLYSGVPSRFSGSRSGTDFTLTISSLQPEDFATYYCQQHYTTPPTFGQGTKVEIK
notes: IgG
On to B14, for which the binding result is on record as “binds”.

B15: MYT2233 (antibody, V domains shown)
VH: B1 VH with H26G, I34H
VL: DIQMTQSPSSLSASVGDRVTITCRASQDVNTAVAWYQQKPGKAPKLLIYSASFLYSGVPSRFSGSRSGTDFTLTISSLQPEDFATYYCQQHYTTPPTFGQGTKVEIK
notes: IgG
Take B15: the binding result is “binds”.

B16: MYT2240 (antibody, V domains shown)
VH: B1 VH with H26G, D55H
VL: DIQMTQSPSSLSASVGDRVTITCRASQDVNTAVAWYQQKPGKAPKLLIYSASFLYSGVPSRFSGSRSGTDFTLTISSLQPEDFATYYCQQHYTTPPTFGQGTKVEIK
notes: IgG
In the case of B16, the binding result was “binds”.

B17: MYT2241 (antibody, V domains shown)
VH: B1 VH with H26G, G56H
VL: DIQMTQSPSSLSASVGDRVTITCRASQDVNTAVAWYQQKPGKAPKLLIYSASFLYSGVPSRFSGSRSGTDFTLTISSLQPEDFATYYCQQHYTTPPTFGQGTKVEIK
notes: IgG
As to B17, the binding result was “binds”.

B18: MYT2242 (antibody, V domains shown)
VH: B1 VH with H26G, I57H
VL: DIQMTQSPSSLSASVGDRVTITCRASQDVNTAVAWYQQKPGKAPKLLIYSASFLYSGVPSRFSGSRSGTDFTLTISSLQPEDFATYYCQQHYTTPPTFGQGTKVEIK
notes: IgG
As for B18, the binding result is “binds”.

B19: MYT2243 (antibody, V domains shown)
VH: B1 VH with H26G, T58H
VL: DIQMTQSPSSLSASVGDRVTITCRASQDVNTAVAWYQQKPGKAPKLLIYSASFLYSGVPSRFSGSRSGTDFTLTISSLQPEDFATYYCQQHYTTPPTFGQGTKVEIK
notes: IgG
Consider B19, for which the binding result is “binds”.

B20: MYT2227 (antibody, V domains shown)
VH: B1 VH with H26G, N28H
VL: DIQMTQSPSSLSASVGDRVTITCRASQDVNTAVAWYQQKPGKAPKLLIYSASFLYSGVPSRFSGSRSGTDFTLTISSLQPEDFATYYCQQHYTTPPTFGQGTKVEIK
notes: IgG
Regarding B20, the binding result is listed as “binds”.

B21: MYT2237 (antibody, V domains shown)
VH: B1 VH with H26G, F52H
VL: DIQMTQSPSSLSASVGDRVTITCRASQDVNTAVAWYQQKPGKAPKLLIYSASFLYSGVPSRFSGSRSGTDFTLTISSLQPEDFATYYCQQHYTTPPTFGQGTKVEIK
notes: IgG
Take B21: the binding result is “binds”.

B22: MYT2247 (antibody, V domains shown)
VH: B1 VH with H26G, D62H
VL: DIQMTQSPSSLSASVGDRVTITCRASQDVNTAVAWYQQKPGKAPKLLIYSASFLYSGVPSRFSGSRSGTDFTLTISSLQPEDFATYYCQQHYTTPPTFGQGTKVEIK
notes: IgG
As to B22, the binding result is given as “binds”.

B23: MYT1562 (antibody, V domains shown)
VH: QVQLVQSGAEVVKPGASVKISCKASGYTFTGYFMNWVKQSPGQSLEWIGRIHPYDGDTFYNQKFQGKATLTVDKSSNTAHMELLSLTSEDFAVYYCTRYDGSRAMDYWGQGTTVTVSS
VL: DIVLTQSPLSLAVSLGQPAIISCKASHSVSFAGTSLMHWYHQKPGQQPRLLIYRASNLEAGVPDRFSGSGSKTDFTLTISPVEAEDAATYYCQQSREYPYTFGGGTKLEIK
notes: IgG
Consider B23, for which the binding result is “binds”.

B24: MYT1570 (antibody, V domains shown)
VH: B23 VH
VL: B23 VL with H27Q, S35H
notes: IgG
Consider B24, for which the binding result was “binds”.

B25: MYT1584 (antibody, V domains shown)
VH: B23 VH
VL: B23 VL with H27Q, R96H
notes: IgG
B25: the binding result was “binds”.

B26: MYT1563 (antibody, V domains shown)
VH: B23 VH
VL: B23 VL with H27Q, S28H
notes: IgG
Regarding B26, the binding result is listed as “binds”.

B27: MYT1578 (antibody, V domains shown)
VH: B23 VH
VL: B23 VL with H27Q, L58H
notes: IgG
Regarding B27, the binding result is given as “binds”.

B28: MYT1589 (antibody, V domains shown)
VH: B23 VH
VL: B23 VL with H27Q, T101H
notes: IgG
Regarding B28, the binding result was “binds”.

B29: MYT1583 (antibody, V domains shown)
VH: B23 VH
VL: B23 VL with H27Q, S95H
notes: IgG
B29: the binding result is “binds”.

B30: MYT1580 (antibody, V domains shown)
VH: B23 VH
VL: B23 VL with H27Q, A60H
notes: IgG
With B30, the binding result is on record as “binds”.

B31: MYT1588 (antibody, V domains shown)
VH: B23 VH
VL: B23 VL with H27Q, Y100H
notes: IgG
As for B31, the binding result was “binds”.

B32: MYT1579 (antibody, V domains shown)
VH: B23 VH
VL: B23 VL with H27Q, E59H
notes: IgG
Consider B32, for which the binding result is “binds”.

B33: MYT1576 (antibody, V domains shown)
VH: B23 VH
VL: B23 VL with H27Q, S56H
notes: IgG
For B33, the binding result was “binds”.

B34: MYT1573 (antibody, V domains shown)
VH: B23 VH
VL: B23 VL with H27Q, H38A
notes: IgG
With B34, the binding result is “binds”.

B35: MYT1581 (antibody, V domains shown)
VH: B23 VH
VL: B23 VL with H27Q, Q93H
notes: IgG
In the case of B35, the binding result is “binds”.

B36: MYT1575 (antibody, V domains shown)
VH: B23 VH
VL: B23 VL with H27Q, A55H
notes: IgG
As to B36, the binding result is recorded as “binds”.

B37: MYT1569 (antibody, V domains shown)
VH: B23 VH
VL: B23 VL with H27Q, T34H
notes: IgG
On to B37, for which the binding result is recorded as “binds”.

B38: MYT1567 (antibody, V domains shown)
VH: B23 VH
VL: B23 VL with H27Q, A32H
notes: IgG
As for B38, the binding result is reported as “binds”.

B39: MYT1571 (antibody, V domains shown)
VH: B23 VH
VL: B23 VL with H27Q, L36H
notes: IgG
For the molecule B39, the binding result is recorded as “binds”.

B40: MYT1577 (antibody, V domains shown)
VH: B23 VH
VL: B23 VL with H27Q, N57H
notes: IgG
With B40, the binding result was “binds”.

B41: MYT1582 (antibody, V domains shown)
VH: B23 VH
VL: B23 VL with H27Q, Q94H
notes: IgG
Turning to B41, the binding result is recorded as “binds”.

B42: MYT1565 (antibody, V domains shown)
VH: B23 VH
VL: B23 VL with H27Q, S30H
notes: IgG
B42: the binding result is given as “binds”.

B43: MYT1585 (antibody, V domains shown)
VH: B23 VH
VL: B23 VL with H27Q, E97H
notes: IgG
In the case of B43, the binding result was “binds”.

B44: MYT1574 (antibody, V domains shown)
VH: B23 VH
VL: B23 VL with H27Q, R54H
notes: IgG
For the molecule B44, the binding result is “binds”.

B45: MYT1586 (antibody, V domains shown)
VH: B23 VH
VL: B23 VL with H27Q, Y98H
notes: IgG
Take B45: the binding result is on record as “binds”.

B46: MYT1568 (antibody, V domains shown)
VH: B23 VH
VL: B23 VL with H27Q, G33H
notes: IgG
As to B46, the binding result is given as “binds”.

B47: MYT1566 (antibody, V domains shown)
VH: B23 VH
VL: B23 VL with H27Q, F31H
notes: IgG
B47: the binding result is reported as “binds”.
